According to patent US20240148866A1 (DENALI THERAPEUTICS, published 2024):

Key:
[1] = target: T1, biotinylated full-length human transferrin receptor (hTfR) (human, UniProt P02786 89-760, limits assumed, biotinylated (site not stated)); test: SPR (Biacore T200), biotinylated full-length hTfR on streptavidin chip, IgG:IDS injected, single-cycle kinetics; apparent (avid) affinity
T1 construct: Printed as 'biotinylated full-length hTfR', immobilized on a streptavidin chip; also called full-length hTfR; full-length receptor
T1 sequence (P02786 89-760 limits assumed): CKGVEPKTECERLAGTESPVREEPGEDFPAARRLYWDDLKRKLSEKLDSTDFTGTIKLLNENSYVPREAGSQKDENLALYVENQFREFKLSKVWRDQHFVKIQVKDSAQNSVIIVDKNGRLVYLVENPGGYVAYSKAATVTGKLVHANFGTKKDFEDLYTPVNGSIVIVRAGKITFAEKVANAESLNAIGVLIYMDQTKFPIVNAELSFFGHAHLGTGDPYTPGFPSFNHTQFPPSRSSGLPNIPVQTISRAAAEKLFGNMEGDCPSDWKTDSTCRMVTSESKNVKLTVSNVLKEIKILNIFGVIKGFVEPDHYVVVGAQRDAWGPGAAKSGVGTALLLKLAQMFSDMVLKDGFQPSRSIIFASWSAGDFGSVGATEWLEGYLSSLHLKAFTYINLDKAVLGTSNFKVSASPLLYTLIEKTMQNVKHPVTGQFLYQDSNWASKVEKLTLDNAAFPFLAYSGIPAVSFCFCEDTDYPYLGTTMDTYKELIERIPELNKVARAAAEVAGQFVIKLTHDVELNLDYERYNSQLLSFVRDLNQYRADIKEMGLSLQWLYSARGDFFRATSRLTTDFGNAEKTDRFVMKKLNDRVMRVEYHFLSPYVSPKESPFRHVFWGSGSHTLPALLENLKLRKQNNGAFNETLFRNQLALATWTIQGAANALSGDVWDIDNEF
Protocol: (§1) The affinity of IgG:IDS for human transferrin receptor (hTfR) was determined by surface plasmon resonance on a Biacore™ T200 instrument using two methods, similar to previously described (Kariolis et al. 2020. Sci Transl Med 12(545):eaay1359). In Method 1, to evaluate monovalent TfR binding affinity, IgG:IDS was captured on a Protein A-coated Biacore™ Series S CM5 sensor chip and serial dilutions of the apical domain of hTfR (hTfR^apical) were injected over the captured sample. In Method 2, for evaluation of apparent hTfR binding affinity of IgG:IDS, biotinylated full-length hTfR was immobilized on a streptavidin-coated CM5 sensor chip, followed by injection of serial dilutions of IgG:IDS. For both methods, the single-cycle kinetics mode was used for sample injection (association time, 90 s; dissociation time, 600 s), and binding affinities were calculated using Biacore T200 Evaluation Software v3.0.

[2] = target: T2, Fc fusion of the 9th domain of human cation independent mannose-6-phosphate receptor (ciM6PR; Uniprot P11717) (human, UniProt P11717 1225-1363, limits assumed); test: ELISA: plate coated with the Fc fusion of ciM6PR domain 9, IgG:IDS titrated, detection with biotinylated anti-IDS antibody and streptavidin-HRP, A450
T2 construct: domain: 9th domain; It was coated on ELISA plates at 1 ug/mL
T2 sequence (P11717 1225-1363 limits assumed, one chain of several): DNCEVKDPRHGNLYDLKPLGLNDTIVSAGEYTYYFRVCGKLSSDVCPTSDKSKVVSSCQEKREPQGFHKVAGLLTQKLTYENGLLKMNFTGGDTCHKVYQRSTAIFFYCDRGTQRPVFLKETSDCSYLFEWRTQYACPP
Protocol: ELISA plates were coated with an Fc fusion of the 9th domain of human cation independent mannose-6-phosphate receptor (ciM6PR; Uniprot P11717) at 1 μg/mL in PBS overnight at 4° C. The following day, the plate was washed three times with wash buffer (PBS with 0.02% Tween-20) and blocking buffer (PBS with 0.02% Tween-20 and 5% BSA) was added to each well. Blocking was carried out for 1 hour at room temperature after which the plate was washed three times, and IgG:IDS was added to the first column of the plate at a concentration of 25 nM. A 3-fold serial dilution was performed across the plate. Primary incubation of the binding reactions was carried out for one hour at room temperature. After binding, the plate was washed three times, and binding was detected using biotinylated anti-IDS antibody diluted to 0.0625 μg/mL in sample buffer. The plate was incubated with a detection antibody for one hour at room temperature and then washed three times. Streptavidin-HRP, diluted 1:50,000 in sample buffer, was then added to each well. The plate was incubated for 30 minutes at room temperature and then washed three times. The ELISA was developed using TMB reagent. The ELISA plate was read on a HighRes BioTek Synergy plate reader, where the absorbance at 450 nm was recorded.

[3] = target: T3, apical domain of human transferrin receptor (hTfR^apical) (human, UniProt P02786 198-378); test: SPR (Biacore T200), IgG:IDS captured on Protein A chip, hTfR apical domain injected, single-cycle kinetics
T3 construct: also called apical domain of hTfR
T3 sequence (P02786 198-378 limits assumed): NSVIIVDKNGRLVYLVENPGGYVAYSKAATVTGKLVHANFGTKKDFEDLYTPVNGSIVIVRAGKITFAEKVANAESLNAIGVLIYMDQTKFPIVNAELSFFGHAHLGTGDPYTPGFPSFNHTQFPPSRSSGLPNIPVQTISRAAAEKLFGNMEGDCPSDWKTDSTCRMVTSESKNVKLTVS
Protocol: as §1

B1: IgG:IDS fusion protein (anti-transferrin receptor antibody with an IDS enzyme linked to the C-terminus of each heavy chain) (antibody)
heavy: not shown
light: DIVMTQTPLSLSVTPGQPASISCRSSQSLVHSNGNTYLHWYLQKPGQSPQLLIYKVSNRFSGVPDRFSGSGSGTDFTLKISRVEAEDVGVYYCSQSTHVPWTFGQGTKVEIKRTVAAPSVFIFPPSDEQLKSGTASVVCLLNNFYPREAKVQWKVDNALQSGNSQESVTEQDSKDSTYSLSSTLTLSKADYEKHKVYACEVTHQGLSSPVTKSFNRGEC
modifications: formylglycine (fG) in place of the Cys in the IDS part in the form given as SEQ ID NO:18; glycans carry about 1.5-2.3 mol/mol M6P and about 15-16 mol/mol sialic acid per fusion protein
notes: Antibody-enzyme fusion with human IgG1 constant regions, expressed in ExpiCHO cells co-transfected with SUMF1
Kd [1]: ~100 pM | EC50 (read off the curve) [2]: ~80 pM | Kd [3]: 2600 pM
